Assay: soluble on expression in E. coli; label from the status in PepcDB or PDB records

Row | Sequence | soluble on expression in E. coli
1 | STQEQTPQICVVGSGPAGFYTAQHLLKHHSRAHVDIYEKQLVPFGLVRFGVAPDHPEVKNVINTFTQTARSDRCAFYGNVEVGRDVTVQELQDAYHAVVLSYGAEDHQALDIPGEELPGVFSARAFVGWYNGLPENRELAPDLSCDTAVILGQGNVALDVARILLTPPDHLEKTDITEAALGALRQSRVKTVWIVGRRGPLQVAFTIKELREMIQLPGTRPMLDPADFLGLQDRIKEAARPRKRLMELLLRTATEKPGVEEAARRASASRAWGLRFFRSPQQVLPSPDGRRAAGIRLAVTRLEGIGEATRAVPTGDVEDLPCGLVLSSIGYKSRPIDPSVPFDPKLGVVPNMEGRVVDVPGLYCSGWVKRGPTGVITTTMTDSFLTGQILLQDLKAGHLPSGPRPGSAFIKALLDSRGVWPVSFSDWEKLDAEEVSRGQASGKPREKLLDPQEMLRLLGH | soluble
2 | STQFINKLYASYLREKAYLTAQKHWEKDEIDEQSYQIIQRKYDELLPEAHEILLNMDSLSEVRDTLNKYLTQHQQALLIAGEDSVPFSFKYKDQLGAALYYPDNEGNFIVLVMSRNVYGAEIKE | not soluble
3 | STTLTHRARRTEISKNSEKKMESEEDSNWEKSPDNEDSGDSKDIRLTLMEEVLLLGLKDKEGYTSFWNDCISSGLRGGILIELAMRGRIYLEPPTMRKKRLLDRKVLLKSDSPTGDVLLDETLKHIKATEPTETVQTWIELLTGETWNPFKLQYQLRNVRERIAKNLVEKGILTTEKQNFLLFDMTTHPVTNTTEKQRLVKKLQDSVLERWVNDPQRMDKRTLALLVLAHSSDVLENVFSSLTDDKYDVAMNRAKDLVELDPEVEGTKPSATEMIWAVLAAFNKS | soluble
4 | SVGTSCIPGMAIPHNPLDSCRWYVSTRTCGVGPRLATQEMKARCCRQLEAIPAYCRCEAVRILMDGVVTSSGQHEGRLLQDLPGCPRQVQRAFAPKLVTEVECNLATIHGGPFCLSLLGAGE | soluble
5 | SYVQDYRSPFIASVSDQHGVVYITENKNKTVVIPCLGSISNLNVSLCARYPEKRFVPDGNRISWDSKKGFTIPSYMISYAGMVFCEAKINDESYQSIMYIVVVVGYRIYDVVLSPSHGIELSVGEKLVLNCTARTELNVGIDFNWEYPSSKHQHKKLVNRDLKTQSGSEMKKFLSTLTIDGVTRSDQGLYTCAASSGLMTKKNSTFVRVHEKPFVAFGSG | soluble
6 | TADNNSMPHGAVSSYAKLVQNQTPEDILEEFPEIIPLQQRPNTRSSETSNDESGETCFSGHDEEQIKLMNENCIVLDWDDNAIGAGTKKVCHLMENIEKGLLHRAFSVFIFNEQGELLLQQRATEKITFPDLWTNTCCSHPLCIDDELGLKGKLDDKIKGAITAAVRKLDHELGIPEDETKTRGKFHFLNRIHYMAPSNEPWGEHEIDYILFYKINAKENLTVNPNVNEVRDFKWVSPNDLKTMFADPSYKFTPWFKIICENYLFNWWEQLDDLSEVENDRQIHRML | soluble
7 | TAPIAITCFTRGLDIRKEKADVLCPGGCPLEEFSVYGNIVYASVSSICGAAVHRGVISNSGGPVRVYSLPGRENYSSVDANGIQSQMLSRWSASFTVTLE | soluble
8 | TATRVRPREYALRYPYMQVNRPGMVSWLVFDLDHANALAWDDAGLPAPNLMVRNRKSGHSQLFYAVPSVCTTENARTKPIQYMKAIYAAFAARLDADVDYHGGPVAKTPGHPWWETTEFHSHVYELGELASAVELTVKPWATGPKLDQVSHSRHCILFEQLRYFAYSIVNRERELGSFESFMRSLDAYAYNHNSFLKQGFSENLPLSSIRATVKSVGRWTWDRYTGDRRCHRGAMQLDGSLSLTERQSLAAKRTNELRH | not soluble
9 | TCSQPNNFPAEIPLYKQSFKNWAGDIKVDDVWTCAPRSADEVVKVANWAKDNGYKVRARGMMHNWSPLTLAAGVSCPAVVLLDTTRYLTAMSIDASGPVAKVTAQAGITMEALLTGLEKAGLGVTAAPAPGDLTLGGVLAINGHGTAIPAKGERRLAGASYGSISNLVLSLTAVVYDKASGAYALRKFARNDPQIAPLLAHVGRSLIVEATLQAAPNQRLRCQSWFNIPYGEMFAAAGSGGRTFASYLDSAGRVEAIWFPFTSNPWLKVWTVTPNKPLFSRQTDKPFNYPFSDNLPDEVTDLANKILSLGDGKLTPAFGKAQFAAASAGLVATASWDLWGWSKNLLLYVKPTTLRVTANGYAVLTRRENVQRVLNEFVTFYQARVQAYQQQGRYPMNGPVEIRVTGLDDPSEAALSGGVAPALSAIRPRPDHPEWNVAVWLDILTLPGTPYANQFYREIEQWIEANFNGSYAAVRPEWSKGWGYTDQAAWADSAMLQTTIPNAFRAGQPAAANWDAAKAALAAYDPYRLFSSPLLDSLGL | soluble
